pKd: −log10 of the molar value. One block for each substance: values may come before it.
How the values were obtained:
[1] = target: DNA polymerase (pol) β, human wild-type full-length (1–335 aa) (human) (UniProt P06746); assay: SPR; Biacore X-100, 25 °C; polβ, ligase IIIα or APTX amine-coupled on CM5; XRCC1 (wild-type or mutants) as analyte, 30 μl/min; 20 mM HEPES pH 7.4, 150 mM NaCl, 3 mM EDTA, 0.005% Surfactant P20; 1:1 (Langmuir) model
[2] = target: DNA ligase IIIalpha;XRCC1 wild-type (human;human) (UniProt P18887); assay: BLI; details: 10 mM Mg2+, 1 mM ATP; 1:1 ligase/XRCC1; koff 2.0e-4; BLI (Octet QKe): 20 mM HEPES pH 7.4, 200 mM NaCl, 0.5% BSA, 0.05% Tween 20, 20 °C; ternary complexes plus 10 mM MgCl2 and 0.1 mM dGTP or 1 mM ATP
[3] = target: XRCC1 R280H R280H (human) (UniProt P18887); assay: BLI; details: BLI (Octet QKe): 20 mM HEPES pH 7.4, 200 mM NaCl, 0.5% BSA, 0.05% Tween 20, 20 °C; ternary complexes plus 10 mM MgCl2 and 0.1 mM dGTP or 1 mM ATP
[4] = system: DNA ligase IIIalpha (human); assay: BLI; details: BLI (Octet QKe): 20 mM HEPES pH 7.4, 200 mM NaCl, 0.5% BSA, 0.05% Tween 20, 20 °C, ternary complexes plus 10 mM MgCl2 and 0.1 mM dGTP or 1 mM ATP
[5] = target: DNA ligase IIIα, human wild-type full-length (1–922 aa) (human)
[6] = target: DNA polymerase (pol) β, human wild-type full-length (1–335 aa) (human) (UniProt P06746)
[7] = target: DNA ligase IIIα, human wild-type full-length (1–922 aa) (human); assay: SPR; Biacore X-100, 25 °C; polβ, ligase IIIα or APTX amine-coupled on CM5; XRCC1 (wild-type or mutants) as analyte, 30 μl/min; 20 mM HEPES pH 7.4, 150 mM NaCl, 3 mM EDTA, 0.005% Surfactant P20; 1:1 (Langmuir) model
[8] = target: Aprataxin (APTX), human wild-type full-length (human) (UniProt Q7Z2E3); assay: as above
Aprataxin (APTX), human wild-type full-length (human), sequence (Q7Z2E3 whole entry): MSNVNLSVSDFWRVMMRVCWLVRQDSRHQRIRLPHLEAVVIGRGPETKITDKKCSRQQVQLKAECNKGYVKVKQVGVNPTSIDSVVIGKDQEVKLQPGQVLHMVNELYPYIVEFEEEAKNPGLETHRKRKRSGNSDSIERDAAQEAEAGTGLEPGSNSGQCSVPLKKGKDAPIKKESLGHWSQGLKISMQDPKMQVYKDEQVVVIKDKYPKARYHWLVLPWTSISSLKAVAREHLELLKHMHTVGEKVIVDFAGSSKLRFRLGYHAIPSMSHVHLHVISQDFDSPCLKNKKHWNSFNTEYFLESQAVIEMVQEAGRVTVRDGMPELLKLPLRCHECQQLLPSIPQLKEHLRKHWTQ

XRCC1 wild-type (human) = XRCC1 wild-type (human) (UniProt P18887); assay: BLI; details: BLI (Octet QKe): 20 mM HEPES pH 7.4, 200 mM NaCl, 0.5% BSA, 0.05% Tween 20, 20 °C; ternary complexes plus 10 mM MgCl2 and 0.1 mM dGTP or 1 mM ATP
[9] = target: DNA polymerase beta (human) (UniProt P06746); assay: BLI; details: BLI (Octet QKe): 20 mM HEPES pH 7.4, 200 mM NaCl, 0.5% BSA, 0.05% Tween 20, 20 °C; ternary complexes plus 10 mM MgCl2 and 0.1 mM dGTP or 1 mM ATP
[10] = target: DNA polymerase beta;XRCC1 wild-type (human;human) (UniProt P06746+P18887); assay: BLI; details: BLI (Octet QKe): 20 mM HEPES pH 7.4, 200 mM NaCl, 0.5% BSA, 0.05% Tween 20, 20 °C; ternary complexes plus 10 mM MgCl2 and 0.1 mM dGTP or 1 mM ATP
[11] = target: DNA polymerase beta (human) (UniProt P06746); assay: BLI; details: BLI (Octet QKe): 20 mM HEPES pH 7.4, 200 mM NaCl, 0.5% BSA, 0.05% Tween 20, 20 °C; ternary complexes plus 10 mM MgCl2 and 0.1 mM dGTP or 1 mM ATP; remark: listed apart in the source

pKd [1]: 8.24
Substance: XRCC1 cancer-associated variant R399Q (from UniProt P18887 1-633) (natural protein)

pKd [1]: 6.55
Substance: XRCC1 V86R mutant (from UniProt P18887 1-633) (natural protein)

Substance: nick DNA with 3'-dG:C
pKd [2]: 8.19
pKd [3]: 6.85
pKd ([4]; 10 mM Mg2+, 1 mM ATP, no XRCC1, koff 5.0e-4): 7.66
pKd ([4]; no ATP): 8.30

amount of ligation products, nick sealing of nick DNA with 3′-dG:C by ligase IIIα, with against without XRCC1 [5]: 4 fold
amount of ligation products in the coupled assay (polβ dGTP:C insertion coupled to ligation by ligase IIIα), with against without XRCC1 [6]: 2 fold
pKd [1]: 7.99
pKd [7]: 7.30
Substance: X-ray cross-complementing protein 1 (XRCC1), human wild-type full-length (1–633 aa) (from UniProt P18887 1-633) (natural protein)
pKd [8]: 6.43

pKd [1]: 6.77
Substance: XRCC1 R109A mutant (from UniProt P18887 1-633) (natural protein)

Substance: one nucleotide gap DNA, template C
pKd (XRCC1 wild-type (human)): 6.96
pKd [9]: 6.45
pKd [10]: 7.52
pKd [3]: 6.82
pKd [11]: 8.27

— paper PMC8405949
